Measured values: patent US20090155236A1, “Peptide sequence for modulation of delta protein kinase c” (NATIONAL INSTITUES OF HEALTH (NIH), U.S. DEPT OF HEALTH AND …, priority 2004, published 2009)

T1: epsilon PKC (Homo sapiens, UniProt Q02156)
T1 construct: purchased Panvera LLC, now Invitrogen Corporation
T1 sequence (Q02156 with tags, fused parts or gaps DEL296-297/G298R): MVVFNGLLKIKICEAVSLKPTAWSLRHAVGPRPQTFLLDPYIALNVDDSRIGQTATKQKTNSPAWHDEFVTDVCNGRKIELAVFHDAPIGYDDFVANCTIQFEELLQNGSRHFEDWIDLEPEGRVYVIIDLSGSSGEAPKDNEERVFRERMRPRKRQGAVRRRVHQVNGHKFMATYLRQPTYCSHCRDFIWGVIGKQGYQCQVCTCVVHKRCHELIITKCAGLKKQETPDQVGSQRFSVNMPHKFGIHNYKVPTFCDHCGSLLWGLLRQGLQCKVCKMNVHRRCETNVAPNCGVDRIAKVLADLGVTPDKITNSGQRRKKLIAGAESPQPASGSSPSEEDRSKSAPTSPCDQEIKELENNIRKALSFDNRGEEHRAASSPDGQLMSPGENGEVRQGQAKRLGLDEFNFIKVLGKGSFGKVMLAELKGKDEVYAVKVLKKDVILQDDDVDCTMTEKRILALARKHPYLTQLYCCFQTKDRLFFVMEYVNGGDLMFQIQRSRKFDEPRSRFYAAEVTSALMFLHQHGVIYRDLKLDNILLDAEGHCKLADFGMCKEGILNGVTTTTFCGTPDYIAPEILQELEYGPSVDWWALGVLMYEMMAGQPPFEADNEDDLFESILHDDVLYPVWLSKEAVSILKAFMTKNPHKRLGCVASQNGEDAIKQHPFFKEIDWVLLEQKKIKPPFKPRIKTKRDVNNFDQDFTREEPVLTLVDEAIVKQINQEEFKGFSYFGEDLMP

T2: epsilon PKC (Rattus norvegicus, UniProt P09216)
T2 sequence (P09216 1-737): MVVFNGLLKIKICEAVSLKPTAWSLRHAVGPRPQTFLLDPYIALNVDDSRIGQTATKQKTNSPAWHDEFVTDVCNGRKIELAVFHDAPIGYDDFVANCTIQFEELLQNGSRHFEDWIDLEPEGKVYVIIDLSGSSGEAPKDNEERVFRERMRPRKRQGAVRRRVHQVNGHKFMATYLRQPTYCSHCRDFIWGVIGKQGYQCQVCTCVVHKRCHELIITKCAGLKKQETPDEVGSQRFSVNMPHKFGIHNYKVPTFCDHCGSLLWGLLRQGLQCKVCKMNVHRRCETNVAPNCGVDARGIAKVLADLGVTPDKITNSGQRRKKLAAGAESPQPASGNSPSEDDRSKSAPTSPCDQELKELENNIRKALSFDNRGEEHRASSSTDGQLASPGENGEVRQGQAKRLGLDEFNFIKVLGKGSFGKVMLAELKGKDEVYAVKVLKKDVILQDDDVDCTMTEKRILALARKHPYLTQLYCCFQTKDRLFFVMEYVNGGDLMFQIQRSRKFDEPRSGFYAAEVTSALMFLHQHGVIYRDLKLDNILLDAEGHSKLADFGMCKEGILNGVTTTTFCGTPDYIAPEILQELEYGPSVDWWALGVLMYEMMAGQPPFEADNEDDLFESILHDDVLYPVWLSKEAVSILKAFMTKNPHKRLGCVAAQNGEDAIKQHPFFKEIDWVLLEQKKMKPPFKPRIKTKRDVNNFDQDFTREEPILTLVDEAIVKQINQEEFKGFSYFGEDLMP

B1: annexin V: human annexin V protein (protein, listed as Homo sapiens)
chain: MAQVLRGTVTDFPGFDERADAETLRKAMKGLGTDEESILTLLTSRSNAQRQEISAAFKTLFGRDLLDDLKSELTGKFEKLIVALMKPSRLYDAYELKHALKGAGTNEKVLTEIIASRTPEELRAIKQVYEEEYGSSLEDDVVGDTSGYYQRMLVVLLQANRDPDAGIDEAQVEQDAQALFQAGELKWGTDEEKFITIFGTRSVSHLRKVFDKYMTISGFQIEETIDRETSGNLEQLLLAVVKSIRSIPAYLAETLYYAMKGAGTDDHTLIRVMVSRSEIDLFNIRKEFRKNFATSKMIKGDTSGDYKKALLLLCGEDD
B2: annexin I: human annexin I protein (protein, listed as Homo sapiens)
chain: MAMVSEFLKQAWFIENEEQEYVQTVKSSKGGPGSAVSPYPTFNPSSDVAALHKAIMVKGVDEATIIDILTKRNNAQRQQIKAAYLQETGKPLDETLKKALTGHLEEVVLALLKTPAQFDADELRAAMKGLGTDEDTLIEILASRTNKEIRDINRVYREELKRDLAKDITSDTSGDFRNALLSLAKGDRSEDFGVNEDLADSDARALYEAGERRKGTDVNVFNTILTTRSYPQLRRVFQKYTKYSKHDMNKVLDLELKGDIEKCLTAIVKCATSKPAFFAEKLHQAMKGVGTRHKALIRIMVSRSEIDMNDIKAFYQKMYGISLCQAILDETKGDYEKILVALCGGN

What was measured:
[1] = target: T1, epsilon PKC; assay: In vitro kinase assay, histone phosphorylation by epsilon PKC; type: biochemical; conditions: in the presence of PS/DAG, FIG. 4B
Protocol: (§1) In another study, the ability of annexin V to increase the catalytic activity of delta PKC in vitro was evaluated. Full-length, recombinant delta PKC (SEQ ID NO:3) and epsilon PKC (SEQ ID NO:6) were separately incubated in the presence of kinase buffer, ATP, or histone, as described in Example 3. Activators of PKC, phosphatidylserine (PS) and diacylglycerol (DAG), were added along with annexin V, JTV-519, a 1,4 benzothiazepine derivative that activates delta PKC (Inagaki, K. et al., Circulation, 101:797 (2000)), or a mixture of annexin V and JTV-519.
(§2) 200 ng of pure delta PKC or epsilon PKC (Panvera LLC, now Invitrogen Corporation, Carlsbad, Calif.) were incubated in 100 μL kinase buffer (20 mM Tris pH 7.4, 50 mM MgCl2, 0.3 μCi/reaction [γ-^32P]ATP (Amersham Biosciences), 9 μM/reaction ATP (Sigma), 30 μg/reaction myelin basic protein or histone A1 (Sigma); 100 μM lipid vesicle mixture (90% phosphatidylserine (PS): 10% diacylglycerol (DAG)), 1 mM CaCl2, 1 μM JTV519, and/or 20 ng of Annexin V/reaction were added, where applicable. The kinase reaction was stopped by the addition of SDS sample buffer, and extent of histone phosphorylation assessed after separation on 15% SDS-PAGE and transfer onto nitrocellulose membrane by autoradiography.

[2] = target: T3, delta PKC (Rattus norvegicus, UniProt P09215); assay: ELISA binding of annexin I and annexin V to delta PKC; conditions: FIG. 3
From the text: Annexin V binds with higher affinity to delta PKC than does annexin I (SEQ ID NO:9), as was shown in another study presented in FIG. 3. The percent binding of annexin 1 and annexin V to delta PKC (SEQ ID NO:3) in the presence and absence of calcium was investigated using ELISA (Example 2). […] In the presence of calcium the binding increased to 100%. In contrast, annexin I binding to delta PKC was unaffected by the presence of calcium and remained at about 70% both in the absence and presence of calcium.
(§3) Annexin V (SEQ ID NO:2) was diluted in 100 mM carbonate buffer (pH=9.6) and 100 μl of the diluted solution is placed in each well of a microtiter plate to give 0.1 μg Annexin V per well. The plate was incubated overnight at 4° C. After the overnight incubation, the plate was blocked for 1 hour at room temperature with 200 μL/well of 1% bovine serum albumin (BSA).
The interaction partners, delta PKC (SEQ ID NO:3), delta V1 PKC (SEQ ID NO:4), and delta V5 PKC (SEQ ID NO:5), were diluted in 100 mM HEPES. For the full length delta PKC, approximately 1.5 μg/well (1:20 dilution of cell lysate) was added. For the delta V1 and delta V5 PKC regions, between about 8000-80 ng/well was added, with an intermediate concentration being sufficient. Signal to noise increased dramatically at higher concentrations; therefore, 8 μg/well was preferred (this corresponds to 1:40 dilution of cell lysate). 100 μL/well, 1 hour w/shaking. Binding was accelerated at 37° C., however room temperature was also sufficient for binding.
After 1 hour shaking, the plate was washed three times with 100 mM HEPES (200 μL/well×3), with 5 minutes for each wash, with shaking.
Next, a primary antibody in milk (usually 1:1000 dilution) was added, followed by 1 hour at room temperature with shaking. The plate was then washed three times, (200 μL/well×3) with PBS Tween (0.1% Tween), with 5 minutes per wash with shaking.
Then, the secondary antibody diluted in PBS Tween (usually 1:1000) was added, followed by 1 hour at room temperature with shaking. The plate was then washed three times (200 μL/well×3) with PBS Tween, with 5 minutes per wash with shaking.
(§4) A developing reagent was added (100 μL/well): 1 PNPP tablet per 5 mL diluted buffer. 2N NaOH was added and the plate was allowed to develop and then read at 405 nm (single wavelength).
Target sequence in this assay (P09215 with tags, fused parts or gaps with the stated changes limits assumed): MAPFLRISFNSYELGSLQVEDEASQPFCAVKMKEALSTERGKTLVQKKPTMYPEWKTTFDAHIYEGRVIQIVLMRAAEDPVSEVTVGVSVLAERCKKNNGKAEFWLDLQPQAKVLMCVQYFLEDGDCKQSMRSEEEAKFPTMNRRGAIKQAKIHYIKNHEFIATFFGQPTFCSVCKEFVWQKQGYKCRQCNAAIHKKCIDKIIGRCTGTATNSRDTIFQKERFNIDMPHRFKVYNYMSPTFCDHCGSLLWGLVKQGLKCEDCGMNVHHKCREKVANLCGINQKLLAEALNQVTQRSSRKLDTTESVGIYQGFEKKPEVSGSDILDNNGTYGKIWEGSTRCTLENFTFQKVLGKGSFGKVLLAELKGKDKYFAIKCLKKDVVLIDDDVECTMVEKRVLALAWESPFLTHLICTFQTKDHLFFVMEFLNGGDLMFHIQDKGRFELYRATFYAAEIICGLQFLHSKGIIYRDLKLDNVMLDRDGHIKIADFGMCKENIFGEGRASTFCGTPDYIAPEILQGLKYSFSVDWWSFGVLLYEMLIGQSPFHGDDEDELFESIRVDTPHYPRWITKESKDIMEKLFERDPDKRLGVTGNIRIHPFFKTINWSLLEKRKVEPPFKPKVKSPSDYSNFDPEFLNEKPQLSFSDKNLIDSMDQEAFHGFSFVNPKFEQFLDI

[3] = target: T4, delta V1 PKC (Rattus norvegicus, UniProt P09215); assay: ELISA binding of annexin V protein to delta V1 PKC; conditions: FIG. 2
T4 construct: MBP (printed as 'myelin basic protein'); made in house
From the text: In another study, binding of annexin V protein to the V1 regions of epsilon PKC (SEQ ID NO:7) and of delta PKC (SEQ ID NO:4) was examined using ELISA, as described in Example 2. […] Binding of annexin V protein (SEQ ID NO:2) to delta V1 PKC in the absence of calcium was about 55%. In the presence of calcium binding was increased to 100%. […] Thus, annexin V protein binds to full-length PCK and to the V1 and V5 domains of delta PKC in vitro in an isozyme specific manner.
as §3
The interaction partners, delta PKC (SEQ ID NO:3), delta V1 PKC (SEQ ID NO:4), and delta V5 PKC (SEQ ID NO:5), were diluted in 100 mM HEPES. For the full length delta PKC, approximately 1.5 μg/well (1:20 dilution of cell lysate) was added. For the delta V1 and delta V5 PKC regions, between about 8000-80 ng/well was added, with an intermediate concentration being sufficient. […]
as §4

[4] = target: T5, delta PKC (Homo sapiens, UniProt Q05655); assay: In vitro kinase assay, histone phosphorylation by delta PKC; type: biochemical; conditions: in the presence of PS/DAG, FIG. 4A
T5 construct: purchased Panvera LLC, now Invitrogen Corporation
Protocol: as §1, §2

[5] = target: T3, delta PKC; assay: Overlay assay, immobilized annexin V with delta PKC, delta V1 and delta V5 domains; type: binding; design: made in house; host or cells: crude bacterial cell lysate (not clear whether this also covers the full-length protein)
From the text: (§5) Initial studies were designed to evaluate binding of annexin V to delta PKC, to certain regions of delta PKC (V1 and V5 regions), and to epsilon PKC. In a study detailed in Example 1, an overlay assay using immobilized annexin V (SEQ ID NO:2) and recombinant full-length delta PKC (SEQ ID NO:3), purified full-length epsilon PKC (SEQ ID NO:6), the recombinant V1 region of delta PKC (“V1 delta PKC”, SEQ ID NO:4), and the recombinant V5 region of delta PKC (“V5 delta PKC”, SEQ ID NO:5) was done. The V1 delta PKC peptide conjugated to […] to form a fusion protein, and the V5 delta PKC peptide was conjugated to glutathione-S-transferase to form a fusion protein.
10 μg of annexin V (SEQ ID NO:2) was separated on 12% SDS-PAGE gel and transferred to nitrocellulose, and then cut into strips. The strips were incubated with blocking buffer (50 mM Tris pH 7.5, 200 mM NaCl, 3% bovine serum albumin, 0.1% PEG20). The strips were then incubated in overlay buffer (50 mM Tris pH 7.5, 200 mM NaCl, 1% PEG20, 12 mM β-mercaptoethanol) in the presence where appropriate of 30 μg crude bacterial cell lysate containing fusion proteins of […] V1 PKC (MBP-δV1), glutathione-S-transferase-delta V5 PKC (GST-δV5), and full length sequences of delta (δPKC, SEQ ID NO:3) or rat purified epsilon (εPKC, SEQ ID NO:6) at 37° C. for 30 min. The strips where then washed with wash buffer (50 mM Tris pH 7.5, 200 mM NaCl, 0.1% PEG20, 12 mM O-mercaptoethanol), and then incubated with fixative (0.2% formaldehyde in PBS) and neutralizing solution (0.2M glycine in PBS) at room temperature 20 min each. After washing with buffer, the strips were probed with antibodies according to the overlay protein, and resulting bands visualized using ECL Western blotting.

[6] = target: T2, epsilon PKC; assay: Overlay assay, immobilized annexin V with epsilon PKC; type: binding; conditions: FIG. 1
From the text: as §5
10 μg of annexin V (SEQ ID NO:2) was separated on 12% SDS-PAGE gel and transferred to nitrocellulose, and then cut into strips. The strips were incubated with blocking buffer (50 mM Tris pH 7.5, 200 mM NaCl, 3% bovine serum albumin, 0.1% PEG20). The strips were then incubated in overlay buffer (50 mM Tris pH 7.5, 200 mM NaCl, 1% PEG20, 12 mM β-mercaptoethanol) in the presence where appropriate of 30 μg crude bacterial cell lysate containing fusion proteins of […] V1 PKC (MBP-δV1), glutathione-S-transferase-delta V5 PKC (GST-δV5), and full length sequences of delta (δPKC, SEQ ID NO:3) or rat purified epsilon (εPKC, SEQ ID NO:6) at 37° C. for 30 min. […]

T4 sequence (P09215 1-160): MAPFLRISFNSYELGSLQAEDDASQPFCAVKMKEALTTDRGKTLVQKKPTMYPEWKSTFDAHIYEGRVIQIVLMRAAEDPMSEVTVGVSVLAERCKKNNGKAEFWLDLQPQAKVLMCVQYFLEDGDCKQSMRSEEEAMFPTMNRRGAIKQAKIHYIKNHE
T5 sequence (Q05655 whole entry): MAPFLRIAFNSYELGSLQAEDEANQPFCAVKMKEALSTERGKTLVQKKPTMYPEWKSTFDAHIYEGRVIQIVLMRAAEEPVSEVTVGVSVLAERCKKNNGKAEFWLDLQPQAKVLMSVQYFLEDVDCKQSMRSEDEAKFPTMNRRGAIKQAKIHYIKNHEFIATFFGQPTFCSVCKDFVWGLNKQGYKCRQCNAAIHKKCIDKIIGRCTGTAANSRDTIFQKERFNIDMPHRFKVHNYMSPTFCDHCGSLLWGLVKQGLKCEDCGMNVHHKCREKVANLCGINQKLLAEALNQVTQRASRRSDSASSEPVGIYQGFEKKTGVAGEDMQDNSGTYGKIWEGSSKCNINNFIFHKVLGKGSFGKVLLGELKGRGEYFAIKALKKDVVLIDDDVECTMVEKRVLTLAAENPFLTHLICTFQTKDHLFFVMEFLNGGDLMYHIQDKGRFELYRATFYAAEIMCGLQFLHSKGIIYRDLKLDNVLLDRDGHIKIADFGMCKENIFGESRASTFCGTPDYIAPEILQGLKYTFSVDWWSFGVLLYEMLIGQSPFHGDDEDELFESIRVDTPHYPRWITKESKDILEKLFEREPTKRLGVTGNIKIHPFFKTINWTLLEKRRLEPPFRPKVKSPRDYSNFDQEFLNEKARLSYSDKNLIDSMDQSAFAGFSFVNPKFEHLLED

Molecule	activity of epsilon PKC (histone phosphorylation) [1]	percent binding to delta PKC ([2]; absence of calcium)	percent binding to delta PKC ([2]; presence of calcium)	percent binding to delta V1 PKC ([3]; absence of calcium)	percent binding to delta V1 PKC ([3]; presence of calcium)	catalytic activity of delta PKC (histone phosphorylation) [4]	binding of V5 domain of delta PKC to annexin V ([5]; FIG. 1, GST-delta V5 fusion protein)	binding of V1 domain of delta PKC to annexin V ([5]; FIG. 1, MBP-delta V1 fusion protein)	binding of full-length delta PKC to annexin V ([5]; FIG. 1, full-length delta PKC)	binding of epsilon PKC to annexin V [6]
B1	does not increase the activity of epsilon PKC	about 75%	100%	about 55%	100%	increases the catalytic activity of delta PKC	bound to annexin V	bound to annexin V	bound to annexin V	did not bind
B2	–	about 70%	about 70%	–	–	–	–	–	–	–
